Data on six molecules can be found in patent US20240132603A1 (HARBOUR BIOMED US, published 2024).

Experiment [1] deals with T1, human CCR8 (human, UniProt P51685 1-355).
T1 construct: whole, on cells; construct used for the overexpressing cell lines is not described; also called hCCR8
Put plainly: FACS, CHO-K1-hCCR8 cells. In a few lines:
(§1)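 Primary Ab 5-fold titration from 200 nM (DPBS/2% FBS), 1 h 4 °C; secondary 1:1000, 40 min 4 °C; 2× DPBS washes; flow cytometry read-out.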
On the technique in general: Flow cytometry measures light scatter and fluorescence of single cells or particles in a stream.

Experiment [2] concerns the target T2, cynomolgus monkey CCR8 (cynomolgus monkey, UniProt G7NYJ2 1-355).
T2 construct: whole, on cells; also called CynoCCR8
Put plainly: FACS on CHO-K1 cells overexpressing cynomolgus monkey CCR8. Here is the method:
Cells overexpressing cynomolgus monkey CCR8, CHO-K1-CynoCCR8, were digested with pancreatin, counted and resuspended to a cell density of 1E6 cells/mL. The cell suspension was added to a 96-well V-bottom plate at 100 μL/well and centrifuged at 300 g for 5 min, and the supernatant was discarded. The anti-CCR8 antibodies provided herein was used as a primary antibody and diluted in a 5-fold gradient with an FACS buffer (DPBS containing 2% FBS) from 200 nM. The diluted primary antibody was added at 100 μL/well to resuspend the cells, and the mixture was incubated at 4° C. for 1 h. The plate was washed twice with DPBS and centrifuged at 300×g for 5 min, and the supernatant was discarded. The secondary antibody diluted in a 1:1000 ratio with an FACS buffer was added at 100 μL/well to suspend the cells, and the mixture was incubated at 4° C. for 40 min. The plate was washed twice with DPBS and centrifuged at 300×g for 5 min, and the supernatant was discarded. DPBS was added at 200 μL/well to suspend the cells, and the mixture was loaded on an FACS machine for analysis.

Experiment [3] deals with T2, cynomolgus monkey CCR8. Put plainly: FACS, CHO-K1-CynoCCR8 cells. In a few lines:
(§2)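 Anti-CCR8 antibodies titrated in 5-fold steps from 200 nM onto 1E6 cells/mL CHO-K1-CynoCCR8 in DPBS/2% FBS, 1 h at 4 °C. Bound antibody detected with 1:1000 secondary antibody, 40 min at 4 °C, then flow cytometry.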

Experiment [4] concerns the target T1, human CCR8. Put plainly: FACS, CHO-K1-hCCR8 cells. In a few lines:
as §1
The source holds these as a separate data set.

The target of experiment [5] is T3, MMP16 (UniProt P51512 120-607).
T3 construct: whole, on cells; also called HEK293-MMP16
Put plainly: flow cytometry, HEK293-MMP16 cells.

Experiment [6] deals with T4, TSPAN4-FLAG (UniProt O14817 1-238, limits assumed).
T4 construct: whole, on cells; order of protein and tag unknown; also called HEK293-TSPAN4; not shown: FLAG tag
T4 sequence (looked up): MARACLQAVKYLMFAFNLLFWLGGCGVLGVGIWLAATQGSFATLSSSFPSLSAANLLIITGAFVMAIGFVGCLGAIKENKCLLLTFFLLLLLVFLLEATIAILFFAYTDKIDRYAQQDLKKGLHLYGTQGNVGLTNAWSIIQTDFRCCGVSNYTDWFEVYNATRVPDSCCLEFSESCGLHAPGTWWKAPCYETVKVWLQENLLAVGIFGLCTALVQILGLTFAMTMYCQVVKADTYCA
Put plainly: flow cytometry, HEK293-TSPAN4 cells.

Another experiment deals with T5, CD147.
T5 construct: also called HEK293-CD147
Kind of experiment: flow cytometry, HEK293-CD147 cells.

In experiment [7] the target is T6, CD40LG (UniProt P29965 1-261).
T6 construct: whole, on cells; also called HEK293-CD40LG
T6 sequence (looked up): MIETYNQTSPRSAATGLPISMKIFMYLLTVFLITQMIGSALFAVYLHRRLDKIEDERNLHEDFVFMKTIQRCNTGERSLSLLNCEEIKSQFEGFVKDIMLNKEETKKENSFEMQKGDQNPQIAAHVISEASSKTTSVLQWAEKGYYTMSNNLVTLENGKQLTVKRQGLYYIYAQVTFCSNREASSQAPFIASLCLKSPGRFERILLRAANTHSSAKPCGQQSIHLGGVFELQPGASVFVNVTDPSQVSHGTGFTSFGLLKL
Kind of experiment: flow cytometry, HEK293-CD40LG cells.

The target in experiment [8] is T2, cynomolgus monkey CCR8. Kind of experiment: FACS, CHO-K1-CynoCCR8 cells. In a few lines:
as §2
This is another data set of the same source.

Experiment [9] has as its target T7, TSPAN12-FLAG (UniProt O95859 1-305).
T7 construct: whole, on cells; order of protein and tag unknown; also called HEK293-TSPAN12; not shown: FLAG tag
T7 sequence (looked up): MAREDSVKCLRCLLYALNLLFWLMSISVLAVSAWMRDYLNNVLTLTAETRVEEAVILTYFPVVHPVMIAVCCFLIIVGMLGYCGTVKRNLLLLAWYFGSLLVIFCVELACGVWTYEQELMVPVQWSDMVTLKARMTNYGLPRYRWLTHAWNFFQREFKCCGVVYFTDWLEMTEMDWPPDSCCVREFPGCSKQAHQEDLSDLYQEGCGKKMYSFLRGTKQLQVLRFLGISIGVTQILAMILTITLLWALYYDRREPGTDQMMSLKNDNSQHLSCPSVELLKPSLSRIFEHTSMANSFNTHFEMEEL
Kind of experiment: flow cytometry, HEK293-TSPAN12 cells. From the text:
(§3) After that, HEK293 cells were transfected with commercial MMP16 (protein information can be found under Uniprot P51512), CD40LG (protein information can be found under Uniprot P29965), CD147 (protein information can be found under Uniprot P35612), TSPAN4 (protein information can be found under Uniprot 014817), and TSPAN12 (protein information can be found under Uniprot 095859) plasmids for further verification of the binding of PR005565, PR006275 and PR006276 to these proteins. […] However, the binding values of PR005565, PR006275 and PR006276 to MMP16, CD40LG, CD147, TSPAN4 and TSPAN12 after transfection of HEK293 cells were all consistent with the signal values of HEK293 cells themselves. Thus, PR005565, PR006275 and PR006276 had no non-specific binding to MMP16, CD40LG, CD147, TSPAN4 and TSPAN12 proteins (see Table 50).

The target of experiment [10] is T6, CD40LG. Put plainly: flow cytometry, transfected HEK293 cells.
Source text: as §3

In experiment [11] the target is T3, MMP16. Kind of experiment: flow cytometry, transfected HEK293 cells.
Source text: as §3

The target of experiment [12] is T7, TSPAN12-FLAG. Put plainly: flow cytometry, transfected HEK293 cells.
Source text: as §3

Experiment [13] has as its target T4, TSPAN4-FLAG. Put plainly: flow cytometry, transfected HEK293 cells.
Source text: as §3

Experiment [14] deals with T1, human CCR8. Put plainly: KinExA, cell line overexpressing human CCR8; human CCR8 cell line. As to the method:
To 200 mg of PMMA hard beads was added 30 μg of Goat Anti-Human IgG Fc antibody, and the mixture was supplemented with a coating solution to 1.0 mL, with a buffer composition of 1×PBS, pH7.4, to ensure that the beads were completely suspended in the solution. After being spun at room temperature for 2 h, the beads were either allowed to settle naturally or centrifuged briefly at low speed, and the supernatant was removed. 1 mL of blocking buffer (1×PBS, pH7.4, containing 10 mg/mL BSA) was added to ensure that the beads were resuspended in the blocking solution, and the beads were spun at room temperature for 1 h. An appropriate concentration of PR005565, PR006155 or PR006166 was used as the 100% signal value, and PBS blank was used as the background value. The net signal values were detected using 0.5 μg/mL Alexa Fluor® 647 Goat Anti-Human IgG. The cell line overexpressing human or monkey CCR8 was collected by centrifugation at 1500 g for 5 min, washed 2 times with 2 PBS and centrifuged at 350 g. The cells were collected in a 1.5 mL centrifuge tube. 10 mL of 0.2 nM PR005565, PR006155 or PR006166 solution was prepared. The total cells were supplemented with 0.2 nM PR005565, PR006155 or PR006166 solution to 0.82 mL, and diluted in a 2-fold gradient with 0.2 nM PR005565, PR006155 or PR006166 as a buffer. […]
For orientation: A kinetic exclusion assay measures how much of one partner remains free in solution.

Broadly, the EC50 is the concentration giving half of the maximal effect. The EC50 (read off the curve) is the concentration giving half of the maximal effect. A word on the Kd: it is a measure of binding affinity in units of concentration.

Read-outs that look alike come from different tables or passages of the source.

T1 sequence (P51685 whole entry): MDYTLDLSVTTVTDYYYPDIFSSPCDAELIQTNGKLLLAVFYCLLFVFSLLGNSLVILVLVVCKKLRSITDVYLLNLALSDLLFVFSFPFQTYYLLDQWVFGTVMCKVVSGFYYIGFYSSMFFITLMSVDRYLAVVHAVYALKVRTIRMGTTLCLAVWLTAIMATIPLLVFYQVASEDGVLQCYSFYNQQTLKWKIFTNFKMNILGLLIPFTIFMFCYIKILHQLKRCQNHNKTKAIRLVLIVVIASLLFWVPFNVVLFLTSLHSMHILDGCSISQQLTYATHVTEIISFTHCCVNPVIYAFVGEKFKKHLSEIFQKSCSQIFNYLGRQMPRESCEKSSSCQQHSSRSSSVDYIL
T2 sequence (G7NYJ2 entry or part of it): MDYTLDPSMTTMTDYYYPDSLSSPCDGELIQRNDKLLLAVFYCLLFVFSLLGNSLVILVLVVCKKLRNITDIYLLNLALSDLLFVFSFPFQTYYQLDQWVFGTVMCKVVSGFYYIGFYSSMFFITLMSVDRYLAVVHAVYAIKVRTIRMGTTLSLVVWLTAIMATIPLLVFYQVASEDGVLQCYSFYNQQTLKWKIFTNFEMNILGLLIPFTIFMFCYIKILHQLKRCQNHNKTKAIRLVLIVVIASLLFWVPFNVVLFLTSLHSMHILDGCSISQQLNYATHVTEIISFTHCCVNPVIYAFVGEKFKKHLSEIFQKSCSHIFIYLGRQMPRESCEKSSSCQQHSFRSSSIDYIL
T3 sequence (P51512 120-607): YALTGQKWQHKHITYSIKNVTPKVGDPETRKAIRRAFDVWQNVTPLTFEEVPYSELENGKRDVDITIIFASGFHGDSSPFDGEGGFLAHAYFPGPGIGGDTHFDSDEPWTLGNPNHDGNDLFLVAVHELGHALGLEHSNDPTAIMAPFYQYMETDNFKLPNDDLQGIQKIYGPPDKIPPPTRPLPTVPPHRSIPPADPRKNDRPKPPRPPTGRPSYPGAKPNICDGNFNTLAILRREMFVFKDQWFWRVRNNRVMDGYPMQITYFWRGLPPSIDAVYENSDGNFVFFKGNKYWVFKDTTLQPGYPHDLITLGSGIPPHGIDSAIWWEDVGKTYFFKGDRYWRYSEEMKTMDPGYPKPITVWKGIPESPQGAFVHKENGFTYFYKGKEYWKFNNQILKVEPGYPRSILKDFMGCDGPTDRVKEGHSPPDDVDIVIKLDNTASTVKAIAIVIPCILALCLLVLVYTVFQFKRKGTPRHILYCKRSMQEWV

B1: PR004342 (antibody, human IgG1, kappa, V domains shown)
VH: EVQLVESGGGLVQPKGSLKLSCAASGFTFNTYAMNWVRQAPGKGLEWVARIRSKSNNYATYYADSVKDRFTISRDDSQSMLYLQMNNLKTEDTAMYYCVRGKENGNYYAMDFWGQGTSVTVSA
VL: DIVMTQSPLSLPVTPGEPASISCRSSKSLLHSNGNTYLYWFLQKPGQSPQLLIYRMSNLASGVPDRFSGSGSGTDFTLKISRVEAEDVGVYYCMQHLEYPFTFGQGTKLEIKR
Turning to B1, a half-maximal response in the experiment with human CCR8 [1] (EC50) required 0.8 nM. The binding result with cynomolgus monkey CCR8 [2] is given as “no binding (tested: 200 nM)”.

B2: PR004346 (antibody, human IgG1, kappa, V domains shown)
VH: EVQLVESGGGLVQPKGSLKLSCAASGFTFNTYAMNWVRQAPGKGLEWVARIRSKSNNYATYYADSVKDRFTISRDDSQSMLYLQMNNLKTEDTAMYYCVRGKENGNYYAMDFWGQGTSVTVSA
VL: DIVMTQSPLSLPVTLGQPASISCRSSKSLLHSNGNTYLYWFQQRPGQSPRLLIYRMSNLASGVPDRFSGSGSGTDFTLKISRVEAEDVGVYYCMQHLEYPFTFGQGTKLEIKR
For the molecule B2, in the experiment with human CCR8 [1], the response was half-maximal at 0.91 nM (EC50). In addition, the binding result in the experiment with cynomolgus monkey CCR8 [2] is reported as “no binding (tested: 200 nM)”.

B3: PR004668 (antibody, human IgG1, kappa)
heavy: not shown
light: DIVMTQSPLSLPVTPGEPASISCRSSKSLLHSNGKIYLYWFLQKPGQSPQLLIYRMSNLASGVPDRFSGSGSGTDFTLKISRVEAEDVGVYYCMQHLEYPLTFGQGTKLEIKRTVAAPSVFIFPPSDEQLKSGTASVVCLLNNFYPREAKVQWKVDNALQSGNSQESVTEQDSKDSTYSLSSTLTLSKADYEKHKVYACEVTHQGLSSPVTKSFNRGEC
notes: humanized; same VH/VL as PR004520, other heavy chain entry
For B3, the values for the concentration for a half-maximal effect (EC50) in the experiment with cynomolgus monkey CCR8 [3] and in the experiment with human CCR8 [4] were 1.88 nM and 0.62 nM, respectively. Besides, in the experiment with cynomolgus monkey CCR8 [2], the “EC50 (read off the curve)” value was roughly 2 nM.

B4: PR006276 (antibody, human IgG1, kappa)
heavy: not shown
light: DIVMTQSPLSLPVTLGQPASISCRSSKSLLHSNAKIYLYWFQQRPGQSPRLLIYRMSNLASGVPDRFSGSGSGTDFTLKISRVEAEDVGVYYCMQHLEYPLTFGQGTKLEIKRTVAAPSVFIFPPSDEQLKSGTASVVCLLNNFYPREAKVQWKVDNALQSGNSQESVTEQDSKDSTYSLSSTLTLSKADYEKHKVYACEVTHQGLSSPVTKSFNRGEC
In the case of B4, the MFI with MMP16 [5] stood at 160; with TSPAN4-FLAG [6], 203; with CD147, 152; with CD40LG [7] it was 152; in the experiment with TSPAN12-FLAG [9] it was 185. In addition, the EC50 amounted to 0.51 nM with cynomolgus monkey CCR8 [8] and 0.4 nM with human CCR8 [4]. In addition, the binding result in the experiment with CD40LG [10], with MMP16 [11], in the experiment with TSPAN12-FLAG [12] and with TSPAN4-FLAG [13] was “no binding” throughout.

B5: PR006155 (antibody, human IgG1, kappa)
heavy: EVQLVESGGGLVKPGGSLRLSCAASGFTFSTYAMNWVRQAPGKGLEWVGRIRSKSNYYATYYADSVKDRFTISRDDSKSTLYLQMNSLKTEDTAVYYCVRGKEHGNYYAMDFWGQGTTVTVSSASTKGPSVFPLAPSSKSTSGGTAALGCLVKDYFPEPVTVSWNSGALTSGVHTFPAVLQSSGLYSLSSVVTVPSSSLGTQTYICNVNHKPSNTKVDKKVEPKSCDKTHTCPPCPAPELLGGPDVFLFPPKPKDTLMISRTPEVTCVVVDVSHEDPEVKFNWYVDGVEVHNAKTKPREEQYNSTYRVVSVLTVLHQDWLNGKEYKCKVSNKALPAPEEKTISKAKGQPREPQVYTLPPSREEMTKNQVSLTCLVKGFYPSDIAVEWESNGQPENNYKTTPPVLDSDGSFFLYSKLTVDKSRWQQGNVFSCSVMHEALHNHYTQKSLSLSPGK
light: DIVMTQSPLSLPVTLGQPASISCRSSKSLLHSNAKIYLYWFQQRPGQSPRLLIYRMSNLASGVPDRFSGSGSGTDFTLKISRVEAEDVGVYYCMQHLEYPLTFGQGTKLEIKRTVAAPSVFIFPPSDEQLKSGTASVVCLLNNFYPREAKVQWKVDNALQSGNSQESVTEQDSKDSTYSLSSTLTLSKADYEKHKVYACEVTHQGLSSPVTKSFNRGEC
Molecule B5 showed an equilibrium dissociation constant (Kd) in the experiment with human CCR8 [14] of 0.0214 nM. In addition, the EC50 turned out to be 0.39 nM in the experiment with cynomolgus monkey CCR8 [8] and 0.38 nM with human CCR8 [4].

B6: PR006275 (antibody, human IgG1, kappa)
heavy: not shown
light: DIVMTQSPLSLPVTLGQPASISCRSSKSLLHSNAKIYLYWFQQRPGQSPRLLIYRMSNLASGVPDRFSGSGSGTDFTLKISRVEAEDVGVYYCMQHLEYPLTFGQGTKLEIKRTVAAPSVFIFPPSDEQLKSGTASVVCLLNNFYPREAKVQWKVDNALQSGNSQESVTEQDSKDSTYSLSSTLTLSKADYEKHKVYACEVTHQGLSSPVTKSFNRGEC
In the case of B6, the MFI in the experiment with MMP16 [5] was 204; in the experiment with TSPAN4-FLAG [6], 424; with CD147, 362; with CD40LG [7], 352; in the experiment with TSPAN12-FLAG [9], 398. Besides, the EC50 with cynomolgus monkey CCR8 [8] is 0.47 nM; with human CCR8 [4], 0.38 nM. In addition, the binding result with CD40LG [10], with MMP16 [11], with TSPAN12-FLAG [12] and with TSPAN4-FLAG [13] was “no binding” each time.
